Measured values reported in the supplement of paper PMC7125110.
± gives the standard error. This sample holds only a part of the variants without activity.

B1: glmS ribozyme (parent)
chain: AUAAAAGCGCCAGAACUACAGAAAUGUAGUUGACGAGGAGGAGGUUUAUCGAAUUUUCGGCGGAUGCCUCCAAA

Legend:
Conditions in all cases: with glucosamine-6-phosphate
glucosamine-6-phosphate [1] = variants of: B1; experiment: self-cleavage kobs at 40 uM GlcN6P; higher = faster cleavage; RNA array
Summary of the method: (§1)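 Ribozyme variants carrying barcodes were transcribed in situ on sequenced MiSeq chips by E. coli RNA polymerase and tracked at 37 °C with a hybridised Cy3 probe. They were exposed to 40 μM to 10 mM glucosamine-6-phosphate in HEPES/KCl/Mg(OAc)2 buffer. kobs came from exponential decay fits of normalised per-tile medians, and kcat and KM from weighted Michaelis–Menten fits.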

glucosamine-6-phosphate [2] = variants of: B1; experiment: self-cleavage kobs at 640 uM GlcN6P; higher = faster cleavage; RNA array
Summary of the method: as §1

glucosamine-6-phosphate [3] = variants of: B1; experiment: self-cleavage kobs at 10000 uM GlcN6P; higher = faster cleavage; RNA array
Summary of the method: as §1

glucosamine-6-phosphate [4] = variants of: B1; experiment: self-cleavage kobs at 2500 uM GlcN6P; higher = faster cleavage; RNA array
Summary of the method: as §1

glucosamine-6-phosphate [5] = variants of: B1; experiment: self-cleavage kobs at 160 uM GlcN6P; higher = faster cleavage; RNA array
Summary of the method: as §1

Variant	self-cleavage kobs at 40 uM GlcN6P (glucosamine-6-phosphate [1]) [s⁻¹]	self-cleavage kobs at 640 uM GlcN6P (glucosamine-6-phosphate [2]) [s⁻¹]	self-cleavage kobs at 10000 uM GlcN6P (glucosamine-6-phosphate [3]) [s⁻¹]	self-cleavage kobs at 2500 uM GlcN6P (glucosamine-6-phosphate [4]) [s⁻¹]	self-cleavage kobs at 160 uM GlcN6P (glucosamine-6-phosphate [5]) [s⁻¹]
U31A G35C A36U	< 1e-05	< 1e-05	< 1e-05		
G38A U57G	< 1e-05	< 1e-05	< 1e-05	< 1e-05	
A15U C34A A52U	< 1e-05		< 1e-05		
A52U G63C A64U	< 1e-05			< 1e-05	
A6G G32C	< 1e-05	< 1e-05	< 1e-05		< 1e-05
A6U C16U G32C A42U U57G	< 1e-05				
G7U C50G C68G	0.000115 ± 2e-05		0.000186 ± 3.4e-05	0.000185 ± 6.6e-05	0.000493 ± 0.00019
G40C G41C G63U	< 1e-05				
C10G U54G	< 1e-05	< 1e-05		< 1e-05	< 1e-05
U49C C58U	< 1e-05	< 1e-05	< 1e-05	< 1e-05	< 1e-05
C10U C11G U65G	< 1e-05				
A33U C61U C70G	< 1e-05				
G29C U56G C70U	6.27e-05 ± 2.2e-05		0.00013 ± 3.2e-05		
U47G C71U	0.000224 ± 2.2e-05	0.001 ± 0.00012	0.00702 ± 0.00088	0.00216 ± 0.00038	0.000648 ± 8.2e-05
U55G U57G C67U	< 1e-05				
A14U U30C G44A U46G	< 1e-05	< 1e-05	< 1e-05	< 1e-05	
A33C A42U C61A	< 1e-05				
G7U C50G	0.000281 ± 8.4e-05			0.0008 ± 0.00024	0.000551 ± 0.00024
G44A A48G	< 1e-05	< 1e-05	< 1e-05	< 1e-05	< 1e-05
A12U C67A	0.000743 ± 7.6e-05	0.00261 ± 0.00048		0.0101 ± 0.0038	0.000983 ± 0.00027
G38A U45C	< 1e-05	< 1e-05	< 1e-05	< 1e-05	< 1e-05
G41U U57G	< 1e-05	< 1e-05			< 1e-05
A15U C50G C61A	0.000142 ± 3e-05		7.29e-05 ± 1.7e-05		
C34A A39G A48U C68A	< 1e-05		< 1e-05	< 1e-05	< 1e-05
C50G C58A C67A	7.83e-05 ± 1.2e-05		9.18e-05 ± 1.4e-05		

Variant	self-cleavage kobs at 40 uM GlcN6P (glucosamine-6-phosphate [1]) [s⁻¹]	self-cleavage kobs at 640 uM GlcN6P (glucosamine-6-phosphate [2]) [s⁻¹]	self-cleavage kobs at 10000 uM GlcN6P (glucosamine-6-phosphate [3]) [s⁻¹]	self-cleavage kobs at 2500 uM GlcN6P (glucosamine-6-phosphate [4]) [s⁻¹]	self-cleavage kobs at 160 uM GlcN6P (glucosamine-6-phosphate [5]) [s⁻¹]
A6C G29U C34U U47G C58G C70G	0.000135 ± 5e-05	0.000686 ± 0.0002	0.000144 ± 3.9e-05		
U49A C50G C68G	9.07e-05 ± 3.4e-05				
A14C A36C C61G	< 1e-05				
U46C G59C C68U	< 1e-05				
A6C U31A	< 1e-05	< 1e-05	3.99e-05 ± 1.3e-05		
A33C G41C U47C A53G U54C U65G C70U	< 1e-05		< 1e-05		
C34G G63C	< 1e-05	< 1e-05	< 1e-05		< 1e-05
A36G U45G G51U U54C U56A C68A	< 1e-05				
A15C G32U G60U	< 1e-05		< 1e-05		
G29U A52U U65A	< 1e-05				
G9A G43A	< 1e-05	< 1e-05		< 1e-05	
G35C G66A	< 1e-05		< 1e-05	< 1e-05	
C16G G29C	0.000686 ± 9.2e-05	0.00972 ± 0.0043	0.0294 ± 0.0058	0.00501 ± 0.0018	0.00103 ± 0.00047
G51A A52C A53G	< 1e-05				
G7A A33C U57C G63A	< 1e-05				
C10A A36G G40C U47G	< 1e-05				
G44A U47C	< 1e-05	< 1e-05	< 1e-05	< 1e-05	< 1e-05
A53G C67A C70U	0.000161 ± 2.5e-05		0.00035 ± 9e-05		
G38U C50A C67G	8.67e-05 ± 3.1e-05		0.000115 ± 3.2e-05		
A39U C68U C71U	0.000103 ± 3e-05				
G37C A48U U57G	< 1e-05	< 1e-05		< 1e-05	
U46G G51U	< 1e-05	< 1e-05	< 1e-05	< 1e-05	< 1e-05
A6U G9C	< 1e-05	< 1e-05	< 1e-05		
C68A U69C	< 1e-05		4.51e-05 ± 1.6e-05		
